Laboratory results taken from article PMC10922792 (Journal of molecular biology, 2024).

Biological target: T1, hPASK PAS-A domain (residues 131–237) (human, UniProt Q96RG2 131-237, uniformly 15N-labeled)
T1 sequence (looked up): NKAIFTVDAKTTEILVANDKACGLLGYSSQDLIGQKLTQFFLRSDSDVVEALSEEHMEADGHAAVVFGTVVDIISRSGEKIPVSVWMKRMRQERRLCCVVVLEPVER
Experiment: NMR titration

- Kd: 2400 µM
Binder: MRGAAGLQREIQEGAYSGSCYHRDGL (peptide, UniProt Q96RG2 879-904, looked up) [PIM peptide (PASK AA 879–904)]
